# Target: if4e_human EIF4E (UniProt P06730)
# Sequence (P06730 whole entry): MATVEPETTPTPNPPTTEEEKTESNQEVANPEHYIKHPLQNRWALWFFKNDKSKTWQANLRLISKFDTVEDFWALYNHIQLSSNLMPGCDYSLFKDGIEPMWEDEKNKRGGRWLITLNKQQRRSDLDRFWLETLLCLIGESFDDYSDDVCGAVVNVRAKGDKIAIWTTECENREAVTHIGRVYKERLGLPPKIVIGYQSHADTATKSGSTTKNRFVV
row,Substance,effect of a mutation on the interaction
1,"Genome polyprotein (Potato virus Y (strain N)), P18247 D1935K",with no effect
2,"Genome polyprotein (Potato virus Y (strain N)), P18247 D1954A;D1955A;E1957A",decreasing interaction
3,"Genome polyprotein (Potato virus Y (strain N)), P18247 D1954A;D1955A;Q1959A",decreasing interaction
4,"Genome polyprotein (Potato virus Y (strain N)), P18247 E1929K;E1930K",with no effect
5,"Genome polyprotein (Potato virus Y (strain N)), P18247 E1941K;E1945K",with no effect
6,"Genome polyprotein (Potato virus Y (strain N)), P18247 L1961G",decreasing interaction
7,"Genome polyprotein (Potato virus Y (strain N)), P18247 M1958A;Q1959A",decreasing interaction
8,"Genome polyprotein (Potato virus Y (strain N)), P18247 V1951G;E1952K",decreasing interaction
